Target: TIA-1-GLuc1 (UniProt P31483)
Assay: split reporter (BiFC, NanoBiT); split Gaussia luciferase protein-fragment complementation assay (PCA); GLuc1 and GLuc2 fusions coexpressed in live HEK293T cells, luminescence read 48 h after transfection with native coelenterazine

Sequence of UniProt P31483 (P31483 whole entry, the tested form may be a part): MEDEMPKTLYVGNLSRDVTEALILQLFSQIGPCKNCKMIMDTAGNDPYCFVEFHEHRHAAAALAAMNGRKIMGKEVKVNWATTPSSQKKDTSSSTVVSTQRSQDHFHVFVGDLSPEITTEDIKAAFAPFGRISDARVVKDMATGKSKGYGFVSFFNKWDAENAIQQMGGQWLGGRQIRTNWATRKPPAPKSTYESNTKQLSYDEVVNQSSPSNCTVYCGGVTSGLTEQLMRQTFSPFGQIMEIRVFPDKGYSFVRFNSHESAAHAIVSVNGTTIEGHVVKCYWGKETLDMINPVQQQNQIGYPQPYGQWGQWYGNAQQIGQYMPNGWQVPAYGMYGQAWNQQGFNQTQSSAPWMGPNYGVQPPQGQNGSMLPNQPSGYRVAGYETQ

Substance: TauE14-GLuc2 (from UniProt P10636-6 1-383) (natural protein)
- fold of PCA interaction signal over wildtype Tau: > 6 fold

— publication PMC4962319
